Test results: patent US20220118053A1 (ASCENDIS PHARMA GROWTH DISORDERS A S, published 2022)
Bridges are numbered along the chain shown (N, C = ends). Where no end group is shown, it is not given here.

Biological target: T1, NPR-B receptor (UniProt P20594 23-1047, limits assumed)
T1 sequence (looked up): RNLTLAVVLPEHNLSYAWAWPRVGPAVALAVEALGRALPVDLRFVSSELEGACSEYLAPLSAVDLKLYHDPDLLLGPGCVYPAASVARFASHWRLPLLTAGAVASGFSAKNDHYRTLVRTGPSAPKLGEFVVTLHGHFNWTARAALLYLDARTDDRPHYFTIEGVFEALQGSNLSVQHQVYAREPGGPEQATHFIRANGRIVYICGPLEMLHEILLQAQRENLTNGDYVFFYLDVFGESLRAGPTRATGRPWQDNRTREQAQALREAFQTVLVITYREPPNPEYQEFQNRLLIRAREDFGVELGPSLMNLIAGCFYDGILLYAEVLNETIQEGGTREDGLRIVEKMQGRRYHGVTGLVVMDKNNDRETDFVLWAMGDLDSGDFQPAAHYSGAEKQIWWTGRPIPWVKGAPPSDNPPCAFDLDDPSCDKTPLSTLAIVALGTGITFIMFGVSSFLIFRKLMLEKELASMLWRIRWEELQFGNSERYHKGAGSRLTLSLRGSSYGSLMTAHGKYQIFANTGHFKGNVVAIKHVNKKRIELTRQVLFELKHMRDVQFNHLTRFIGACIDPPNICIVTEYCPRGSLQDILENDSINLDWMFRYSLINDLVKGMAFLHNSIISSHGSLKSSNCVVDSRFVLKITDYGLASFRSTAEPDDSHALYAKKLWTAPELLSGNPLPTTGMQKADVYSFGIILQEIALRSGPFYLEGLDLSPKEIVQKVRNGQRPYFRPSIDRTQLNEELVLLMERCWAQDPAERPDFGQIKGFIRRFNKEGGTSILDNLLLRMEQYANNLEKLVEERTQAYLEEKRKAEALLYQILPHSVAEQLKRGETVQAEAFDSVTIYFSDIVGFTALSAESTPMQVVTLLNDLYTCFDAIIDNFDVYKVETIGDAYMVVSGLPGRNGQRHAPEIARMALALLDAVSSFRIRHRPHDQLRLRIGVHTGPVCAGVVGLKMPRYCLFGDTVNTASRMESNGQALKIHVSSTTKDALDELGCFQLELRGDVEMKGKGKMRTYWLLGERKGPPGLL
Test: cell-based or functional assay

Binder: LQEHPNARKYKGANKKGLSKGCFGLKLDRIGSMSGLGC (disulfide 22-38) [CNP-38]
- Biopotency (%), F13, T0; cGMP stimulation in NPR-B overexpressing Hek293 cells, relative to CNP-38 reference standard: 93%
- Biopotency (%), F13, T3M, 5° C.; cGMP stimulation in NPR-B overexpressing Hek293 cells, relative to CNP-38 reference standard: 107%
- Biopotency (%), F13, T3M, 25° C.; cGMP stimulation in NPR-B overexpressing Hek293 cells, relative to CNP-38 reference standard: 91%
- Biopotency (%), F13, T3M, 30° C.; cGMP stimulation in NPR-B overexpressing Hek293 cells, relative to CNP-38 reference standard: 96%
- Biopotency (%), F13, T3M, 40° C.; cGMP stimulation in NPR-B overexpressing Hek293 cells, relative to CNP-38 reference standard: 94%
- Biopotency (%), F13, T6M 25° C.; cGMP stimulation in NPR-B overexpressing Hek293 cells, relative to CNP-38 reference standard: 106%
- Biopotency (%), F13, T6M, 5° C.; cGMP stimulation in NPR-B overexpressing Hek293 cells, relative to CNP-38 reference standard: 95%
- Biopotency (%), F13, T6M, 30° C.; cGMP stimulation in NPR-B overexpressing Hek293 cells, relative to CNP-38 reference standard: 89%
